How the values were obtained:
MSLN.Fc protein = target: T1, MSLN.Fc protein (human, UniProt Q13421 296-598, limits assumed); experiment: ELISA, antigen coated, TG1 supernatant
T1 construct: also called MSLN·hFc; MSLN protein; not shown: human IgG Fc fragment

MD50 protein = target: T2, MD50 protein; experiment: ELISA, antigen coated, TG1 supernatant
T2 construct: range 487-580; also called proximal membrane fragment of mesothelin

[1] = target: T3, segment III of MSLN expressed on HEK293T cells (UniProt Q13421 487-598, limits assumed); experiment: flow cytometry on HEK293T cells expressing MSLN segment III, anti-human IgG PE secondary, fitted curve
T3 construct: domain: segment III of MSLN; also called HEK293T MSLN-III cells; MSLN segment III protein overexpressing cell line
T3 sequence (Q13421 495-606 limits assumed): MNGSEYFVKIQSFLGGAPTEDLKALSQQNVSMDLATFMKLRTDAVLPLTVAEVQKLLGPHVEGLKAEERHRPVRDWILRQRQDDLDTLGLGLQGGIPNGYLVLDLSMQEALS

[2] = target: T4, MSLN on SKOV3 and Aspc-1 tumor cells (UniProt Q13421 296-598); experiment: flow cytometry on Aspc-1 tumor cells, anti-human IgG PE secondary, fitted curve
T4 construct: whole, on cells; Endogenous mesothelin of tumor cell lines; also called SKOV3 tumor cell line; AsPC-1 tumor cell line
T4 sequence (Q13421 other isoform, or with tags, fused parts or gaps limits assumed): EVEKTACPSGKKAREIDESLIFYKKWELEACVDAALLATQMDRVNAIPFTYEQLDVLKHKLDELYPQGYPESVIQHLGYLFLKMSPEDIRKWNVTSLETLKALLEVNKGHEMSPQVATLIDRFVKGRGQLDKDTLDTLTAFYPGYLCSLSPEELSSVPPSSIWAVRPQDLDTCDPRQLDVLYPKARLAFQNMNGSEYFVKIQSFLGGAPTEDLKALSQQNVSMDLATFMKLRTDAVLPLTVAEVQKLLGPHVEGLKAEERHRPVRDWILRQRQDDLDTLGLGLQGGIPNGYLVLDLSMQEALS

MSLN·His protein = target: T5, MSLN·His protein (human, UniProt Q13421 296-580, limits assumed); experiment: SPR (Biacore), antibody captured on protein A, MSLN·His as analyte
T5 construct: Bought protein; also called human MSLN·His antigen; not shown: His tag
T5 sequence (Q13421 other isoform, or with tags, fused parts or gaps limits assumed): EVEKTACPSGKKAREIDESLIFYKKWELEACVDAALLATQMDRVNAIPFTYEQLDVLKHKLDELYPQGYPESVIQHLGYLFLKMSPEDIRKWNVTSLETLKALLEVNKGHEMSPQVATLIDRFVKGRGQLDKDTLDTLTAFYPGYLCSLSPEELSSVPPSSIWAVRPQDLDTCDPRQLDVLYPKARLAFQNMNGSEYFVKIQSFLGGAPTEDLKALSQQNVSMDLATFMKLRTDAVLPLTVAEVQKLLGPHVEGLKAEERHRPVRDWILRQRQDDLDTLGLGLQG
Procedure: (1) Detection of affinity at protein level: the binding kinetics and affinity of heavy chain antibody to human MSLN·His antigen were determined using surface plasmon resonance (SPR). The purified antibody was flowed through the sensor chips pre-immobilized with protein A, and the antibody was captured by protein A. Then five different concentrations of MSLN·His protein were used as the mobile phase, and the binding time and dissociation time were 30 min and 60 min, respectively. Biacore Evaluation Software 2.0 (GE) was used to analyze the binding rate (kon, or ka), dissociation rate (koff, or kd) and equilibrium constant (KD). The rabbit antibody YP218, which binds to segment III of mesothelin, was selected as a positive control (Zhang et al., Sci Rep 2015, 21; 5:9928).

[3] = target: T4, MSLN on SKOV3 and Aspc-1 tumor cells; experiment: flow cytometry on SKOV3 tumor cells, anti-human IgG PE secondary, fitted curve

T2 sequence (Q13421 495-588): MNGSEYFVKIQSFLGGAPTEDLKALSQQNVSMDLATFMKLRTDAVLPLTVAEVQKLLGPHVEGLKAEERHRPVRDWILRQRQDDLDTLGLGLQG

| Binder | ELISA (OD450) (MSLN.Fc protein) | ELISA (OD450) (MD50 protein) | EC50 [1] | EC50 [2] | Kd (MSLN·His protein) | koff (MSLN·His protein) | kon (MSLN·His protein) | EC50 [3] |
| --- | --- | --- | --- | --- | --- | --- | --- | --- |
| M210 (VHH, Nanoantibody in TG1 supernatant in the screening ELISA; also called clone M210) VHH: QVQLVESGGGLVQPGGSLRLSCAASGITLDNYAIAWFRQAPGKKREGVSCISSNGNTYYQPSVKGRFTIARDNAKNTVYLHMNNLNPEDTAVYYCQVGQFSSSTTPVQAMSVMSLYADWGQGTQVTVSS | 1.95 OD450 | 0.823 OD450 |  |  |  |  |  |  |
| M004 (VHH, Nanoantibody in TG1 supernatant in the screening ELISA; also called clone M004) VHH: EVQLVESGGGLVQAGGSLRLSCAASESISSIAYMGWYRRISEKERNLVATISSTGSTYYADSVKGRFTISRDNAKNTMYLQMNRLKPEDTAIYYCAASNKAYNDYDPDWGQGTQVTVSS | 1.1 OD450 | 1.81 OD450 |  |  |  |  |  |  |
| M197 (VHH, Nanoantibody in TG1 supernatant in the screening ELISA; also called clone M197) VHH: EVQLVESGGGLVQAGGSLRLSCAASGSHFGLNVVGWYRQAPGKQRELVASIGNSGRTTDYADSVKGRFTISKDNAQNTIYLQMNNLKPEDTAMYRCHLRVSVERGYWGQGTQVTVSS | 1.21 OD450 | 1.69 OD450 |  |  |  |  |  |  |
| M119-IgG4 (antibody, V domains shown, also called M119 heavy chain antibody) VH: EVQLVESGGGLVQPGGSLRLSCVASGSDLSFDAMGWYRQFSATVRERQLVVATSRDGRIYYGDSVKGRFTASRDNLKNSVDLEMNNLKPEDTAIYYCAAGDDPKNYDWGPGTQVTVSS |  |  | 3.91 nM | 4.25 nM | 0.12 nM | 9.58e-05 s⁻¹ | 826000 M⁻¹ s⁻¹ | 1.63 nM |
| M169 (VHH, Nanoantibody in TG1 supernatant in the screening ELISA; also called clone M169) VHH: EVQLVESGGGTVQPGESLRLSCEASGAVSTINAMGWYRQTPEMRKLVATMGSGGNTYYADSVKGRFTISRDFAGNTVDLQMNDLKPEDTGVYFCAADKFGADIKEVAYWGKGTLVTVSS | 1.36 OD450 | 1.19 OD450 |  |  |  |  |  |  |
| M224 (VHH, Nanoantibody in TG1 supernatant in the screening ELISA; also called clone M224) VHH: QVQLVESGGGLVQPGGSLRLSCAASGFTFHYYAIGWFRQAPGKEREGVSCISSSGDSTWFSDSVKGRFTVSRDNAKNIVHLQMNNLKPEDTAVYYCAGTTRSGYVCYDAEPYDSWGQGTQVTVSS | 1.45 OD450 | 1.78 OD450 |  |  |  |  |  |  |

More lines, now with the values ahead:

| ELISA (OD450) (MSLN.Fc protein) | ELISA (OD450) (MD50 protein) | EC50 [1] | EC50 [2] | Kd (MSLN·His protein) | koff (MSLN·His protein) | kon (MSLN·His protein) | EC50 [3] | Binder |
| --- | --- | --- | --- | --- | --- | --- | --- | --- |
|  |  | 6.24 nM | 2.79 nM | 0.04 nM | 5.37e-05 s⁻¹ | 1.4e+06 M⁻¹ s⁻¹ | 1.85 nM | M129-IgG4 (antibody, V domains shown, also called M129 heavy chain antibody) VH: QVQLVESGGGSAQAGGSLILSCVASANLFTIDALGWYRQAPGPKRELVAAISSGGNKYYADAVKGRFTISRDTLTKTMWLQMNNLKPEDTAMYYCAAEDYGLGQRSWGMGTQVTVSS |
| 1.69 OD450 | 1.71 OD450 |  |  |  |  |  |  | M191 (VHH, Nanoantibody in TG1 supernatant in the screening ELISA; also called clone M191) VHH: QVQLVESGGGLVQAGGSLRLSCAASASMGSISNMGWYRQAPGKERGNERNLVATIGSDGRTYYADSVKGRFTISRDNVKNTMILQMNFLKPEDTAMYYCAVEDRQRPGTENYYWGQGTQVTVSS |
|  |  | 4.95 nM | 5.31 nM | 0.49 nM | 0.000429 s⁻¹ | 882000 M⁻¹ s⁻¹ | 1.62 nM | M003-IgG4 (antibody, V domains shown, also called M003 heavy chain antibody) VH: QVQLVESGGGLVQAGGSLRLSCTASGNIFSINAMGWYRQPPGKEWERELVATISSTNSDNTYYKESVKGRFTISTNTAKNTWYLQMNSLKPEDTAMYYCAAENFDRKDRYWAQGTQVTVSS |
| 2.22 OD450 | 2.08 OD450 |  |  |  |  |  |  | M344 (VHH, Nanoantibody in TG1 supernatant in the screening ELISA; also called clone M344) VHH: QVQLVESGGGLVQSGGSLRLSCVASGSAFSFDAMGWYRQFSATRRERQLVVATSRDGRTYYADSVKGRFTATRDNSKNSLYLEMNSLKPEDTAIYYCAAGDDPKNYSWGQGTQVTVSS |
|  |  |  |  | 0.264 nM | 1.82e-05 s⁻¹ | 69000 M⁻¹ s⁻¹ |  | M2339-IgG4 (antibody, V domains shown, also called M2339 heavy chain antibody) VH: QLQLGASGGGLVQPGGSLRLSCALSGFTLRELDEFAIGWFRQAPGKEREGVSCISGTGGITHYADSVKGRFTISRDIAKTTVYLQMNSLNSEDTAVYYCAADERCTDRLIRPPTYWGQGTQVTVSS |

— US20240190986A1 (ZHEJIANG NANOMAB TECHNOLOGY CENTER, published 2024)
